Data on one molecule can be found in US20140336130A1 (PHIGENIX, INC., priority 2011, published 2014).

Type in all cases: cell-based, human
In series [1] the test system is DU145. As to the kind of experiment: Phase contrast microscopy of cell growth, DU145. Particulars: DEFB1 induction 48 h. As for the experimental part: (§1) Cell morphology was analyzed by phase contrast microscopy. […] The following day plasmid-containing cells were induced for a period of 48 h with media containing 10 μM Ponasterone A, while control cells received fresh media. The cells were then viewed under an inverted Zeiss IM 35 microscope (Carl Zeiss, Germany). Phase contrast pictures of a field of cells were obtained using the SPOT Insight Mosaic 4.2 camera (Diagnostic Instruments, USA). Cells were examined by phase contrast microscopy under 32× magnification and digital images were stored as uncompressed TIFF files and exported into Photoshop CS software (Adobe Systems, San Jose, Calif.) for image processing and hard copy presentation.
(§2) The effect of PAX2 knock-down on cell growth was analyzed by phase contrast microscopy as described in Example 1.
(§3) The effect of PAX2 knockdown on cell number was analyzed by phase contrast microscopy as described in Example 1.

In series [2] the test system is DU145. As to the kind of experiment: Membrane integrity AO/EtBr dual staining, DU145. The protocol: (§4) Acridine orange (AO)/ethidium bromide (EtBr) dual staining was performed to identify changes in cell membrane integrity, as well as apoptotic cells by staining the condensed chromatin. AO stains viable cells as well as early apoptotic cells, whereas EtBr stains late stage apoptotic cells that have lost membrane permeability. Briefly, cells were seeded into 2 chamber culture slides (BD Falcon, USA). […] In order to determine the effect of PAX2 inhibition on membrane integrity, separate culture slides containing DU145, PC3 and LNCaP were treated with PAX2 siRNA and incubated for 4 days. […] Fluorescence was viewed by a Zeiss LSM 5 Pascal Vario 2 Laser Scanning Confocal Microscope (Carl Zeiss Jena, Germany). […] Slides were analyzed under 40× magnification and digital images were stored as uncompressed TIFF files and exported into Photoshop CS software (Adobe Systems, San Jose, Calif.) for image processing and hard copy presentation. […]
(§5) Fluorescence was viewed by a Zeiss LSM 5 Pascal Vario 2 Laser Scanning Confocal Microscope (Carl Zeiss). […] Slides were analyzed under 40× magnification and digital images were stored as uncompressed TIFF files and exported into Photoshop CS software (Adobe Systems) for image processing and hard copy presentation. […]

In series [3] the test system is LNCaP. As to the kind of experiment: Pan-caspase detection (FAM-VAD-FMK, confocal), LNCaP. Particulars: DEFB1 (hBD-1) induction 24 h. The protocol:
(§6) Detection of caspase activity in the prostate cancer cell lines was performed using APO LOGIX™ Carboxyfluorescin Caspase detection kit (Cell Technology, Mountain View, Calif.). Active caspases were detected through the use of a FAM-VAD-FMK inhibitor that irreversibly binds to active caspases. […] Next, 10 μl of a 30× working dilution of carboxyfluorescein labeled peptide fluoromethyl ketone (FAM-VAD-FMK) was added to 300 μl of media and added to each 35 mm dish. Cells were then incubated for 1 hour at 37° C. under 5% CO2. Then, the medium was aspirated and the cells were washed twice with 2 ml of a 1× Working dilution Wash Buffer. Cells were viewed under differential interference contrast (DIC) or under laser excitation at 488 nm. The fluorescent signal was analyzed using a confocal microscope (Zeiss LSM 5 Pascal) and a 63×DIC oil lens with a Vario 2 RGB Laser Scanning Module.
(§7) Detection of caspase activity in the prostate cancer cell lines was performed s described in Example 1.
(§8) Detection of caspase activity in the prostate cancer cell lines was performeds described in Example 1.
(§9) Detection of caspase activity in the prostate cancer cell lines was performed as described in Example 1.

The test system of series [4] is LNCaP. As to the kind of experiment: Membrane integrity AO/EtBr dual staining, LNCaP. The note with it: hBD-1 induction 48 h. The protocol:
as §4, §5

Series [5] has as its system LNCaP. As to the kind of experiment: Phase contrast microscopy of cell growth, LNCaP. The note with it: DEFB1 induction 48 h. The protocol:
as §1, §2, §3

Series [6] has as its system DU145. As to the kind of experiment: Flow cytometry Annexin V-FITC/PI, DU145. The protocol:
The remaining attached cells were harvested by trypsinization and combined with the detached cells and PBS. The cells were then pelleted at 4° C. (500×g) for 5 min, washed twice in PBS, and resuspended in 100 μl of 1× Annexin binding buffer ([…]) containing 5 μl of Annexin V-FITC and 5 μl of PI. The cells were incubated at RT for 15 min in the dark, then diluted with 400 μl of 1× Annexin binding buffer and analyzed by FACscan (Becton Dickinson, San Jose, Calif.). All reactions were performed three times.
PC3 and DU145 cells transfected with the hBD-1 expression system were grown in 60-mm dishes and induced for 12, 24, and 48 h with 10 μM Pon A. The cells were harvested and analyzed by flow cytometry as described in Example 1.

Series [7] relates to PC3. As to the kind of experiment: Flow cytometry Annexin V-FITC/PI, PC3.
Description: The remaining attached cells were harvested by trypsinization and combined with the detached cells and PBS. The cells were then pelleted at 4° C. (500×g) for 5 min, washed twice in PBS, and resuspended in 100 μl of 1× Annexin binding buffer (0.1 M Hepes/NaOH at pH 7.4, 1.4 M NaCl, 25 mM CaCl2) containing 5 μl of Annexin V-FITC and 5 μl of PI. The cells were incubated at RT for 15 min in the dark, then diluted with 400 μl of 1× Annexin binding buffer and analyzed by FACscan (Becton Dickinson, San Jose, Calif.). All reactions were performed three times.
Series [8] has as its system DU145. As to the kind of experiment: Pan-caspase detection (FAM-VAD-FMK, confocal), DU145. Particulars: DEFB1 (hBD-1) induction 24 h. As for the experimental part: as §6, §7, §8, §9
Series [9] deals with PC3. As to the kind of experiment: Membrane integrity AO/EtBr dual staining, PC3. The protocol:
as §4, §5

Series [10] has as its system LNCaP. As to the kind of experiment: MTT cell viability assay, LNCaP. Particulars: DEFB1 (hBD-1) induced with 10 μM PonA, 24-72 h. The protocol: Reactions were performed three times in triplicate.
DU145, PC3 and LNCaP cells […] were transfected with 0.5 μg of the PAX2 siRNA pool or control siRNA pool using Codebreaker transfection reagent according to the manufacturer's protocol (Promega). Next, cell suspensions were diluted and seeded onto a 96-well plate at 1-5×10^3 cells per well and allowed to grow for 2-, 4- or 6 days. After culture, cell viability was determined by measuring the conversion of 3-[4,5-dimethylthiazol-2yl]-2,5 diphenyl tetrazolium bromide, MTT (Promega), to a colored formazan product. Absorbance was read at 540 nm on a scanning multiwell spectrophotometer.
(§10) To examine the effects of hBD-1 on cell growth, metabolic 3-[4,5-dimethylthiazol-2yl]-2,5-diphenyl tetrazolium bromide (MTT) assay was performed. DU145, LNCaP, PC3 and PC3/AR+ cells co-transfected with pvgRXR plasmid and pIND/hBD-1 construct or control pvgRXR plasmid were seeded onto a 96-well plate at 1-5×10^3 cells per well. Twenty-four hours after seeding, fresh growth medium was added containing 10 μM Pon A daily to induce hBD-1 expression for 24, 48 and 72 h after which the MTT assay was performed according to the manufacturer's instructions (Promega). Reactions were performed three times in triplicate.
MTT cytotoxicity assay was performed as described in Example 1.

The subject of series [11] is PC3. As to the kind of experiment: Phase contrast microscopy of cell growth, PC3. The note with it: DEFB1 induction 48 h. As for the experimental part: as §1, §2, §3
Series [12] relates to PC3. As to the kind of experiment: Pan-caspase detection (FAM-VAD-FMK, confocal), PC3. The note with it: DEFB1 (hBD-1) induction 24 h. As for the experimental part: as §6, §7, §8, §9
Series [13] relates to PC3/AR+. As to the kind of experiment: MTT cell viability assay, PC3/AR+. The note with it: PC3 with ectopic AR expression; hBD-1 induced. As for the experimental part: as §10

B1: DEFB1: human beta defensin-1 (SEQ ID NO:63), expressed in cells from Ponasterone A inducible pIND/DEFB1 construct (protein, listed as Homo sapiens)
chain: MRTSYLLLFTLCLLLSEMASGGNFLTGLGHRSDHYNCVSSGGQCLYSACPIFTKIQGTCYRGKAKCCK
For the molecule B1, the cell number result in [1] and in [11] was “significant reduction in cell number” in each case. Moreover, the “membrane integrity (AO/EtBr staining)” value in series [2] (DEFB1 (hBD-1) induction 24 h) was “accumulation of EtBr in the cytoplasm”; in series [2] (DEFB1 (hBD-1) induction 48 h), “possessed condensed nuclei and appeared yellow”; in series [4], “no observable alterations to membrane integrity”; in series [9] (DEFB1 (hBD-1) induction 24 h) it was “accumulation of EtBr in the cytoplasm”; in [9] (DEFB1 (hBD-1) induction 48 h) it was “possessed condensed nuclei and appeared yellow”. Also, the “caspase activity (green FAM-VAD-FMK staining)” value in [3] is “no green staining”; in [8] it was “green staining”; in [12] it was “green staining”. Besides, the cell proliferation entry in series [5] is recorded as “no effect on cell proliferation”. Besides, the “number of apoptotic cells (annexin V/PI, lower and upper right quadrants)” value stood at 12% in series [6] (DEFB1 (hBD-1) induction 12 h); 34% in [6] (DEFB1 (hBD-1) induction 24 h); 59% in [6] (DEFB1 (hBD-1) induction 48 h); 10% in series [7] (DEFB1 (hBD-1) induction 12 h); 20% in [7] (DEFB1 (hBD-1) induction 24 h). Moreover, in [10], the “effect on cell viability” value was “no significant effect”. Moreover, in series [13], the “hBD-1 cytotoxicity, PC3/AR+ compared with PC3” value is reported as “no difference”.
